This is an account of results in patent US20150004189A1 (published 2015).

Test [1] addresses HLA DQ molecule DQB1*0503 (human). As to the kind of experiment: inhibition of radiolabeled peptide binding to purified HLA class II.
Test [2] concerns the target HLA DQ molecule DQB1*0202 (human). The description is as above.
Test [3] addresses HLA DQ molecule DQB1*0502 (human). The description is as above.
Test [4] has the same target. Briefly: inhibition of radiolabeled peptide binding to purified HLA DQ.
Test [5] has as its target HLA DQ molecule DQB1*0202 (human). Described as above.
Test [6] addresses HLA DQ molecule DQB1*0602 (human). The description is as above.
The target in test [7] is HLA DQ molecule DQB1*0503 (human). Described as above.
Test [8] addresses T1, HLA-DQ molecule DQB1*0501 (human, limits assumed).
T1 MHC II alpha: not shown
T1 MHC II beta: not shown
Briefly: inhibition of radiolabeled peptide binding to purified HLA.

Test [9] deals with HLA-DQ molecule DQB1*0502 (human). The test is described as above.
The target in test [10] is HLA-DQ molecule DQB1*0503 (human). The test is described as above.
Test [11] has as its target HLA-DQ molecule DQB1*0602 (human). The test is described as above.
For test [12], the target named is HLA-DQ molecule DQB1*0202 (human). The description is as above.
Test [13] has as its target T2, HLA-DP molecule DPB1*0401 (human).
T2 chain 1: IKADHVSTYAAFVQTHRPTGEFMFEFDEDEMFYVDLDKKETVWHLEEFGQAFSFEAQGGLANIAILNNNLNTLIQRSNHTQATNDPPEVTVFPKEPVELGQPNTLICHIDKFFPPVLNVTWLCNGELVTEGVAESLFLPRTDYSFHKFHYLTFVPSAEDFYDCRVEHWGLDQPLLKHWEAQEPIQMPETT
T2 chain 2: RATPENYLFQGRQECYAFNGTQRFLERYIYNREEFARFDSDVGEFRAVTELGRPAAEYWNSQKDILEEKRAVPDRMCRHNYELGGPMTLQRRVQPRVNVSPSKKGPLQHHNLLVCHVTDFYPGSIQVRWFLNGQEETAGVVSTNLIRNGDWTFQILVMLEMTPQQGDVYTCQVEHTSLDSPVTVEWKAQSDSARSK
Briefly: inhibition of radiolabeled peptide binding to purified HLA-DP.

The target of test [14] is HLA-DP molecule DPB1*2001 (human). The description is as above.
Test [15] has as its target HLA-DP molecule DPB1*1401 (human). The test is described as above.
The target of test [16] is HLA-DQ molecule DQB1*0202 (human). As to the kind of experiment: competition: inhibition of radiolabeled peptide binding to purified HLA.
Test [17] concerns the target HLA-DQ molecule DQB1*0602 (human). The test is described as above.
Test [18] has as its target T3, HLA DQ molecule DQB1*0302 (human, UniProt P01909 24-216; P01920 33-230, limits assumed).
T3 MHC II alpha: not shown
T3 MHC II beta: not shown
Briefly: inhibition of radiolabeled peptide binding to purified HLA class II.

Test [19] deals with T4, HLA DQ molecule DQB1*0501 (human, limits assumed).
T4 MHC II alpha: not shown
T4 MHC II beta: not shown
Described as above.

Test [20] concerns the target HLA DQ molecule DQB1*0602 (human). The test is described as above.
The target of test [21] is T5, HLA-DP molecule DPB1*0101 (human, UniProt P20036 29-222; P04440 30-225, limits assumed).
T5 MHC II alpha: not shown
T5 MHC II beta: not shown
Briefly: inhibition of radiolabeled peptide binding to purified HLA-DP.

The target in test [22] is T6, HLA-DP molecule DPB1*0201 (human, UniProt P20036 29-222; P04440 30-225, limits assumed).
T6 MHC II alpha: not shown
T6 MHC II beta: not shown
Described as above.

Test [23] concerns the target T7, HLA-DP molecule DPB1*0501 (human, UniProt P20036 29-222; P04440 30-225, limits assumed).
T7 MHC II alpha: not shown
T7 MHC II beta: not shown
Described as above.

Test [24] addresses T8, HLA DP molecule DPB1*0401 (human).
T8 chain 1: T2 chain 1
T8 chain 2: T2 chain 2
As to the kind of experiment: competition vs radiolabeled peptide, purified HLA-DP.

Test [25] has as its target T9, HLA DP molecule DPB1*0201 (human).
T9 chain 1: T2 chain 1
T9 chain 2: T2 chain 2 with A36V, A55D, A56E, K69E
The description is as above.

Test [26] deals with T10, HLA-DQ molecule DQB1*0501 (human, limits assumed).
T10 MHC II alpha: not shown
T10 MHC II beta: not shown
Briefly: inhibition of radiolabeled peptide binding to purified HLA-DQ.

Test [27] addresses HLA-DQ molecule DQB1*0602 (human). Described as above.
For test [28], the target named is HLA-DQ molecule DQB1*0503 (human). Described as above.
Test [29] has the same target. As to the kind of experiment: competition: inhibition of radiolabeled peptide binding to purified HLA.
In test [30] the target is HLA-DQ molecule DQB1*0502 (human). Described as above.

Substitutions are numbered along the chain they refer to.

One may read the IC50 as the midpoint of a concentration-inhibition curve. Read a high IC50 as weaker potency. Take NGNELLLDLSLTKVN [Fel d 1 2 (36-50) peptide NGNELLLDLSLTKVN, Peptide ID 3324.1055]: the IC50 turned out to be 9370 nM in [1], 8020 nM in [2] and 2860 nM in [3].
With FKAAVAAAAGAPPAD [Poa p 5 peptide, position 61 (Peptide ID 3324.1575)], the IC50 turned out to be 6780 nM in [4], 25700 nM in test [5], 793 nM in test [6] and 1380 nM in test [7].
Regarding EIYNMVKFRMIAGQE [Der p 4 peptide 3324.0978 (position 386)], the half-inhibitory concentration (IC50) in test [8] came out at 3700 nM; in test [9], 26600 nM; in test [10], 11200 nM; in test [11], 368 nM; in [12], 29100 nM.
For ATPEAKFDSFVAAFT [Poa p 5 peptide, position 121, ATPEAKFD5FVAAFT as printed in Table 8 (Peptide ID 3324.1570)], the IC50 in test [13] is 4850 nM; in [14], 3240 nM; in test [15] it was 2770 nM.
As for AQGKAFYEAVAKAHQ [Alt a 7 peptide, position 190, Peptide ID 3324.0080], the IC50 is 50000 nM in test [16] and 2360 nM in [17].
Turning to EGTVDFIFGEARSLY [Sal k 1 1 peptide, position 191 (Peptide ID 3324.1590)], the values for the IC50 in test [4], in [5] and in test [7] were 6850 nM, 3120 nM and 2360 nM, respectively.
In [6], FTSLEYIEAAKWLLP [Sal k 1 1 peptide, position 321 (Peptide ID 3324.1589)] showed an IC50 of 1300 nM.
With PAVKYIEPDMIVNAT [Pen ch 13 (101-115) peptide PAVKYIEPDMIVNAT, Peptide ID 3324.1304], the IC50 in test [1] amounted to 1790 nM; in [18] it was 822 nM; in [19] it was 119 nM; in [3] it was 1960 nM; in test [20], 549 nM.
Regarding AIVYYSMYGHIKKMA [Alt a 7 (6-20) peptide AIVYYSMYGHIKKMA, Peptide ID 3324.0085], the results for the IC50 in test [2] and in [20] were 6240 nM and 3350 nM, respectively.
Consider QKLMEDINVGFKAAV [Poa p 5 peptide, position 51 (Peptide ID 3324.1580)], for which the results for the IC50 in test [5], in test [6] and in [7] were 8070 nM, 1290 nM and 5210 nM, respectively.
In the case of NDKFTVFEGAFNKAI [Pha a 5 peptide, position 181, NDKFTVFEGAFNKAI (Peptide ID 3324.1442)], the IC50 in [13] amounted to 177 nM; in [21], 613 nM; in test [14], 97 nM; in test [22], 28 nM.
As to DSYKFIPTLVAAVKQ [Lol p 5 1 peptide, position 236, DSYKFIPTLVAAVKQ (Peptide ID 3324.1165)], the IC50 in test [21] is 79 nM; in test [14], 12 nM; in test [23] it was 6.9 nM; in [22], 69 nM.
Consider DINVGFKAAVAAAAG [Poa p 5 peptide, position 56 (Peptide ID 3324.1571)], for which the IC50 in test [4] worked out at 5410 nM; in [6] it was 34 nM.
Take GSCWAFSGVAATESA [Der f 1 peptide, position 131, GSCWAFSGVAATESA (Peptide ID 3324.0670)]: the IC50 worked out at 14400 nM in test [24] and 9310 nM in test [25].
For NALSVLDKIYTSPLC [Fel d 1 1 peptide, position 78, NALSVLDKIYTSPLC (Peptide ID 3324.1050)] the same measures were 349 nM and 575 nM.
For DAYVATLTEALRVIA [Lol p 5 1 peptide, position 151, DAYVATLTEALRVIA (Peptide ID 3324.1167)], the IC50 amounted to 515 nM in [13], 597 nM in [14] and 4400 nM in test [15].
In the case of ATPEAKFDSFVAAFT [Poa p 5 peptide, position 121 (Peptide ID 3324.1570)], the IC50 in [4] came to 8000 nM; in test [7], 910 nM.
In the case of ERSLWIIFSKNLNIK [Cha o 1 (86-100) peptide ERSLWIIFSKNLNIK], the IC50 in [26] came out at 729 nM; in test [27], 432 nM; in test [28] it was 301 nM.
With GGRLAFQEFMIVPCE [Alt a 6 peptide, position 161, Peptide ID 3324.0073], the IC50 in test [29] was determined as 4940 nM; in test [16], 32100 nM; in [17] it was 1290 nM.
Consider IFYDVFFAVANGNEL [Fel d 1 2 peptide, position 26, IFYDVFFAVANGNEL (Peptide ID 3324.1052)], for which the IC50 in [24] amounted to 242 nM; in [25] it was 89 nM.
In the case of AETCPIFYDVFFAVA [Fel d 1 2 peptide, position 21, AETCPIFYDVFFAVA (Peptide ID 3324.1056)], the results for the IC50 in test [24] and in test [25] were 5.6 nM and 8.1 nM, respectively.
On to PAAAYATATPAAATA [Lol p 5 1 peptide, position 306, PAAAYATATPAAATA (Peptide ID 3324.1184)], for which the IC50 worked out at 611 nM in test [14], 12400 nM in test [23], 299 nM in [15] and 3490 nM in [22].
As to INELIASGSEKLASV [Alt a 5 peptide, position 51, Peptide ID 3324.0065], the IC50 in test [29] stood at 7540 nM; in test [30], 25900 nM; in test [17], 302 nM.
DINVGFKAAVAAAAG [Poa p 5 peptide, position 56, DINVGFKAAVAAAAG (Peptide ID 3324.1571)]: the IC50 in test [13] amounted to 20700 nM; in test [14], 295 nM.
In the case of QVAQYKALPVVLENA [Fel d 1 1 (46-60) peptide QVAQYKALPVVLENA, Peptide ID 3324.1051], the IC50 came out at 610 nM in test [1], 21400 nM in test [2], 552 nM in [3] and 1600 nM in [20].
For the molecule FKAAVAAAAGAPPAD [Poa p 5 peptide, position 61, FKAAVAAAAGAPPAD (Peptide ID 3324.1575)], the results for the IC50 in [13] and in [14] were 28900 nM and 2940 nM, respectively.
As to AETCPIFYDVFFAVA [Fel d 1 2 (21-35) peptide AETCPIFYDVFFAVA, Peptide ID 3324.1056], the IC50 in [2] is 2100 nM.
In the case of DEYVEQVAQYKALPV [Fel d 1 1 peptide, position 41, DEYVEQVAQYKALPV (Peptide ID 3324.1049)], the IC50 is 533 nM in test [24] and 1120 nM in test [25].
